# Test results: the supplement of paper PMC12042874
# ± gives the uncertainty stated by the source.
# Assay: amyloid nucleation score (Sup35N fusion, yeast selection) (log enrichment); library NNK2; higher = more nucleation; inactive = no reads after selection
# Method in brief: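 Random libraries were run with three technical output replicates. In each, psi-negative yeast expressing Sup35N fused to peptides of 20 random codons were induced 24 hours with 100 μM copper sulfate and grown 7 days at 30°C on medium lacking adenine and uracil, and input and output plasmid inserts were Illumina-sequenced. The nucleation score is the DiMSum log enrichment of output over input reads, centred on the mode score of non-aggregating sequences, and sequences under 100 input reads were excluded.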
row,Substance,amyloid nucleation score
1,MLECVSALGKLGWFIQPVCL,-0.32 ± 0.55
2,KVRKYSEFSLQSQCDPLGRG,0.455 ± 0.5
3,YDVGTPRIRDFLCAIDRGNH,0.106 ± 0.34
4,RDFVE,-0.386 ± 0.56
5,VSSLFIEDFFFNRTSVMYIG,0.103 ± 0.25
6,NLRSLECLCMRCK,-0.145 ± 0.79
7,LRFRGV,0.339 ± 0.28
8,RSFGYIMLWVMIFNRIKLIF,inactive
9,RFMVSRYFISGPIIVSC,0.284 ± 1.1
10,TGDPTLLMAYSRSYVWRSER,1.28 ± 0.3
11,IGFSPLCQYHYCAYGCY,7.695 ± 0.032
12,QSAFNN,inactive
13,FVFLFMRLKDGFYATIYISH,inactive
14,YVRNFPLGLSV,-1.63 ± 1.1
15,CGVVSLCSGWSLMYDRGWWG,10.2 ± 0.054
16,ENCLESWTCI,-1.08 ± 0.78
17,SYDFSSINRDKTSSSRSLPR,-0.474 ± 1
18,ASFMPLFGGLGFLQKNEITM,3.7 ± 0.077
19,FGIFEQMMFLHNVCSDFTAS,-0.447 ± 1.1
20,ISACFKMGNRGYVICAMSRV,-0.306 ± 0.45
21,RPVDPWLCRKWLVV,inactive
22,GPRLEGWSPPDRAVLSGCSD,0.656 ± 0.44
23,WASIV,0.049 ± 0.8
24,ISLHDRWIADPFVTACGKRY,0.386 ± 0.19
25,ISSMSTLFCLFRGCVGGEYI,-2.18 ± 0.64

row,Substance,amyloid nucleation score
1,SMRYNTSLRWDWVDQDAHRL,4.25 ± 0.068
2,GMVEAR,0.095 ± 0.46
3,KFIEHWYVFGYIFLRFYKFQ,-0.623 ± 1
4,GITPRKDFFYYTLVDTCLVL,-0.198 ± 0.46
5,ASGQWGPD,-0.67 ± 0.76
6,LVHSLDFL,-0.389 ± 0.61
7,AQTWMAKTISKDAVGGSPLS,0.272 ± 0.56
8,HAKPDNLLFLTNGEPRTIIR,-2.15 ± 1.1
9,TELHLTDFWLRIMRQLFRFS,1.61 ± 0.52
10,RYCLTVSKGLRSG,-0.722 ± 0.49
11,IIWQPHSPCVRVYTCLSLIF,-1.67 ± 0.53
12,MWLLWAKI,inactive
13,IVSEIFSG,-0.369 ± 1.1
14,RMYLRSIVKSLMAWQRLGRI,-0.545 ± 0.55
15,RARARHDLRGQRKVLRDRRF,0.849 ± 0.5
16,GPLFRFFRHRAFLQSTFSA,-0.342 ± 0.24
17,NDLSNGSVESMRQYYYLREN,-0.724 ± 0.3
18,VRCLVRYYAVR,-0.649 ± 0.79
19,ANSNIHLVPMTLSTDEVPLP,0.413 ± 0.43
20,NLTNRYFNFSRTEPCNKYLT,0.895 ± 0.81
21,RKIMNGKV,-0.414 ± 0.64
22,IGCNVESVYAGLALQMT,2.7 ± 0.18
23,SFAYVMCLSG,-0.635 ± 0.55
24,CEGCHATKYRVRSWS,1.01 ± 0.31
25,CNNQRYVNNGITRNGRNDAG,-0.604 ± 0.76

row,Substance,amyloid nucleation score
1,YGFEAFWDNLQPAFTVPRVM,inactive
2,FMGTLNRELYTGRYGVG,-0.243 ± 1
3,NFHLEIIFPRQLRLNRSPWV,3.96 ± 0.13
4,WSEISWTIQGCFVRHDALLG,0.087 ± 0.56
5,SSMRRGVIRRCNYKL,-0.992 ± 0.24
6,GVHYEKEGVRTSVFSDLSWE,-0.021 ± 0.3
7,YGMSRNIGAVVWHFCG,-0.368 ± 1
8,IVFYMSS,1.53 ± 0.095
9,NDYEPRCMFGRIVCSNGPEM,1.14 ± 0.42
10,IMLKGDWC,-0.189 ± 0.47
11,HNYVINESFFFLVVVYVDAG,7.6 ± 0.037
12,LVTLRKMDPSPRRVIFNVCN,0.935 ± 0.39
13,SCNNLGDLWLSIILVKSET,0.044 ± 1.1
14,VLVTRIEWMGESTCMSLVNY,2.69 ± 0.12
15,NNIVIYDDLYNSMMALLWS,-1.25 ± 0.64
16,AAKTNCDC,-0.01 ± 1
17,YSYPRS,inactive
18,QHRMDTDTNYFDKDVGHFIS,-0.984 ± 0.32
19,FFRVQINEGDQGYQSQYF,inactive
20,WWEVIRLSLRS,2.04 ± 0.13
21,VRLVNAVNRRTKIHDIYLRV,0.664 ± 0.26
22,SNTHISYYWGTNVWLHVDIN,6.194 ± 0.028
23,GDFSPYYCHCYIIMVCGMLG,inactive
24,RVMRCGCIDVQAILNVIVSQ,9.316 ± 0.039
25,SVVGFTPQKL,-0.049 ± 0.34

row,Substance,amyloid nucleation score
1,ASRNLMYVHNFSSAGLKVLP,0.178 ± 0.65
2,QKTRLSPVYHVGNSGLSPSV,0.29 ± 0.77
3,LHRTLSRRTEVR,3.54 ± 0.086
4,GLIVKLMGIFRNRSETSESQ,4.47 ± 0.083
5,SFNTLCLRKC,-0.65 ± 0.37
6,YSRGMGVSNEMRDYFNKRDI,inactive
7,VFEVDLFWRSKFNSCLLPFR,-0.95 ± 0.36
8,FVYTLAYNRRWYSRAVSFES,-0.461 ± 0.79
9,MYISKVFDALLLLRREPRHR,inactive
10,PNQISNA,-0.47 ± 1.1
11,VVELKELAYQGNGIVLIMED,-0.066 ± 0.41
12,RFFGLAKMRMLVKCQ,0.043 ± 0.65
13,MTSENNWPNYTGLAPTPPAA,1.32 ± 0.18
14,SRSVIFSGESSHHADWFWTV,1.16 ± 0.68
15,CYTDTMARK,4.15 ± 0.047
16,YFWQEIVAFNKVESLILELG,-0.451 ± 1
17,NTVWSFSSEWLFKQQLVCVR,0.091 ± 0.53
18,IRLVMWCYHQNDCVVFSSLH,1.94 ± 0.13
19,VLVVSRA,-0.514 ± 0.45
20,TSNSTQLEDLV,0.309 ± 0.45
21,HDRWNWGDCFVIDHALLLMG,0.393 ± 0.31
22,SLFLARRASTIARLFKRVYM,0.127 ± 0.63
23,YDKSYFVFFNP,1.36 ± 0.27
24,IGIIYFIARFAVVPRSGIRQ,-0.114 ± 1
25,RGDSATLVGCNVVMGRRFSL,4.32 ± 0.099

row,Substance,amyloid nucleation score
1,NFLRML,-0.139 ± 0.21
2,YYGLVSGGLQYVCMFGSFIY,inactive
3,ALFQECYPGMGNYQGSVATT,1.09 ± 0.35
4,ARNTDNPMSNGPYIWIGPY,1.21 ± 0.2
5,TDWGTLARMGLASLC,inactive
6,VLGGPTVRLSWFPSSGLACY,0.23 ± 0.65
7,LFFIIDNSQLSSSVDGLIVE,-0.583 ± 1
8,HSQRNP,inactive
9,CYLVYFSYKLHQI,-1.43 ± 1.1
10,YSELMFTEVIYTVYYLTFLR,-0.797 ± 0.76
11,RKWLISHPFLRRRGLSSLVF,0.99 ± 0.2
12,RKGSTGRDISSNSYIVY,inactive
13,RNMVVGVGRRP,-0.15 ± 0.45
14,LNKNRHGVGIFGIIKYKDMT,inactive
15,LKCPALRSSSPNDLFVP,0.626 ± 0.65
16,TEASLMWRYWDGDPWQWSFD,inactive
17,ILIVVMCFHSNNKSRDNRIY,-1.46 ± 1
18,DIYPRLLEDVFYPFVQPHLF,-0.505 ± 1.1
19,WEDAVDSSVRFC,-0.211 ± 0.61
20,THIITWSVNFTKGWQCFESQ,1.36 ± 0.38
21,GYIGGVSWNISVVVCSS,2.71 ± 0.11
22,SGPSFILSWS,-0.371 ± 0.63
23,KQMFRQFLCGNVYNWRYMRA,0.298 ± 0.56
24,SLSPIYDDLASVVAGTYEIK,-1.27 ± 0.75
25,HFILAIFLYCSIWIFEFFSL,-1.81 ± 1

row,Substance,amyloid nucleation score
1,STWWWYLCIQARLMCMRFLA,-0.357 ± 0.23
2,IDNSTMDTCIMNRSQFTIRL,-0.412 ± 0.54
3,ARRKVSHNV,0.205 ± 0.77
4,NQMYQNE,-0.352 ± 0.45
5,MCDIVHY,-0.446 ± 0.79
6,VAYVQCD,0.035 ± 0.39
7,NGLQRLITNSKFPTRWTWFG,0.206 ± 0.33
8,VKVPYMLARGLDQKGTRRWQ,8.102 ± 0.064
9,IYDLSCAKARLYVASHSLTL,0.418 ± 0.31
10,ICSYSVAGCYRKYRASFSGE,inactive
11,LYFDVTQ,-0.611 ± 0.32
12,LGMRLFRNVCYGLPSRSNRR,1.64 ± 0.41
13,LVVLWK,6.01 ± 0.061
14,TFELNLLVPAPNCRFHDLRR,1.46 ± 0.22
15,ITNAYGLIPTNFLCYAFCVI,7.958 ± 0.038
16,GLSVKTGQGSGFPDLCVGKR,0.838 ± 0.17
17,MDYWVFMPFQLHRLCCYTPL,-0.303 ± 0.24
18,SILDVCVSVT,-0.641 ± 0.55
19,RLFTRANCIHFRERKVRKIH,0.078 ± 0.29
20,RRVMRLWMALPCNDMIGCIQ,-0.476 ± 0.37
21,LKLCLRCSNIVLPD,-0.434 ± 0.3
22,NSSVW,-1.01 ± 0.48
23,RFDWVA,-0.038 ± 0.45
24,WVHVNSCELDSPGKAWGDTG,1.11 ± 0.32
25,DQKTMTTVL,0.368 ± 0.45

row,Substance,amyloid nucleation score
1,SISRFSFIRNTVGRD,0.637 ± 0.37
2,TTRSIMQCDLGTNPFDNTCS,0.203 ± 0.41
3,DLSHNVNVCICFCWAMRYDA,8.342 ± 0.045
4,FCKRKVTCVVY,-0.538 ± 0.45
5,GPLGHVGLFV,inactive
6,KMRDGFISLVKCEYVGGFGC,-0.856 ± 0.76
7,NWTLYFDNRGRVLNTYSTRY,7.718 ± 0.031
8,RGSSALDE,0.382 ± 0.35
9,ASLHWKMFLMAFLTASIVHA,-0.337 ± 0.55
10,DRWMTGMDAVYLHRRGPLFF,0.13 ± 0.8
11,FTNAPVLFVN,inactive
12,SYGNDNDGTWWS,0.676 ± 0.57
13,LSMERSVGFYDTVTLWLQRK,5.9 ± 0.056
14,YYCTKASTLRSGGFRFMPMT,4.9 ± 0.051
15,IVNMMIAANLACAMWSNCKQ,9.266 ± 0.044
16,YYEMFCYSCPSDRPGISNDA,8.827 ± 0.035
17,LMVSRFVF,-0.206 ± 0.76
18,DQAHRGSCDVS,0.214 ± 0.63
19,IILIYVCRRPCLISQDNAFF,inactive
20,ACLHFVSYSELAVFDFSFGK,6.89 ± 0.079
21,MTKCTDHVRVDDVCLHIRGS,-0.255 ± 1.1
22,TIIKDIVIVDVFSSN,1.53 ± 0.15
